Values quoted from earlier work as cited in patent US6645518B2, “Uses for medical devices having a lubricious, nitric oxide-releasing coating” (priority 1998, dated 2003).

Test system: clinical restenosis
Conditions: after balloon angioplasty, systemic administration, six month follow-up

B1: c7E3: potent anti-platelet agent, GPIIb/IIIa antibody, FDA-approved for use after balloon angioplasty (antibody, chains of the INN, looked up, V domains shown)
VH: EVQLQQSGTVLARPGASVKMSCEASGYTFTNYWMHWVKQRPGQGLEWIGAIYPGNSDTSYIQKFKGKAKLTAVTSTTSVYMELSSLTNEDSAVYYCTLYDGYYVFAYWGQGTLVTVSA
VL: EIVLTQSPVTLSVTPGDSVSLSCRASRDISNNLHWFQQTSHESPRLLIKYASQSMSGIPSRFSGSGSGTDFTLSINSVETEDFGMYFCQQTNSWPYTFGGGTKLEIK
reduction of clinical restenosis: 20-30%
